The supplement of paper PMC10724198
± gives the standard deviation of the averaged measurements.

Test system: Saccharomyces cerevisiae
Assay: protein stability index of tFT-peptide fusion (C-terminal peptide) (PSI (0-1 scale)); higher = more stable (slower turnover)
Conditions: genetic background: wild type; temperature: 30 C
Experimental: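 Multiplexed protein stability (MPS) profiling in S. cerevisiae. Random 12-aa peptides (tFT-X12 library) are fused to the C-terminus of a sfGFP-mCherry tandem fluorescent timer, after mCherry and a GGGS linker. Cells are FACS-sorted into 8 mCherry/sfGFP bins and deep-sequenced. The protein stability index (PSI) is the read-weighted bin average, scaled from 0 (unstable) to 1 (stable). Only peptides with >10 reads are reported; cells were grown at 30 °C in SC-His with glucose.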
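Note: PSI is a weighted mean of sequencing reads over stability bins, variants kept only with over 10 reads, mCherry proximal and sfGFP distal, peptide attached via GGGS linker.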

Sequence	protein stability index
FWGGRGGVGLAV	0.601 ± 0.1
FWRPIPQSPLPQ	0.7203 ± 0.002
FYGFHPLALPRP	0.725 ± 0.035
FYKKKIRRGVNV	0.661 ± 0.038
FYMCYFSCSRSL	0.667 ± 0.0086
FYVCVIQNMYML	0.579 ± 0.043
GAAIRVNRCGEG	0.64136 ± 0.00011
GAAPRWSGDRRW	0.71 ± 0.06
GAASHLERGQVP	0.634 ± 0.089
GAATKRKYTINT	0.665 ± 0.013
GACFLGGRLCGR	0.686 ± 0.024
GACILARGVRRR	0.656 ± 0.014
GACPAFPYSVGR	0.595 ± 0.018
GAFLGSPWAAAS	0.731 ± 0.04
GAFRLGSIVGVP	0.735 ± 0.032
GAGAQRGCRSGG	0.6878 ± 0.0034
GAGGVGVTSGGK	0.668 ± 0.056
GAGVSELCGAGW	0.713 ± 0.11
GAHVAVFRQRGR	0.678 ± 0.083
GALYAGWRGPTC	0.669 ± 0.031
GAPAWMLLYSAS	0.723 ± 0.029
GAPKRLSISLSS	0.681 ± 0.019
GAPPPPPARGDL	0.764 ± 0.03
GARCHSKVTNAS	0.681 ± 0.036
GARGCSATGPPG	0.61 ± 0.02
GARGWTVWVAGL	0.632 ± 0.049

Sequence	protein stability index
GARPRSGVRGGT	0.723 ± 0.022
GAVGGGSAADPE	0.667 ± 0.11
GAVGLARVSASN	0.653 ± 0.028
GAVLELCRADGG	0.651 ± 0.0082
GAVTWGGAGVGV	0.694 ± 0.022
GAWCSTGENDTA	0.677 ± 0.059
GCAVLGCLVLSA	0.655 ± 0.088
GCEVRTFMNSSG	0.697 ± 0.016
GCGDIFAEQLLL	0.7227 ± 0.0041
GCGGRTAAWGGG	0.655 ± 0.024
GCGRLWAGIGRR	0.678 ± 0.023
GCGSGGLGGWRW	0.746 ± 0.18
GCGVWRVLRVLR	0.642 ± 0.027
GCPGGGRPGPRA	0.7052 ± 0.0064
GCRGRCVMPVCG	0.634 ± 0.051
GCRLFGLMFFDA	0.682 ± 0.063
GCRPFLLKSQTF	0.777 ± 0.11
GCRSFRNYKIGV	0.641 ± 0.018
GCRSYRVFSGMI	0.727 ± 0.12
GCVDRSSHNALC	0.632 ± 0.037
GCVVSIICGGRA	0.5639 ± 0.0013
GCWGRVLCGGSV	0.695 ± 0.026
GDCYLCSACEWW	0.753 ± 0.016
GDDCQYLVVPVR	0.701 ± 0.052
GDDRGTSKCCLT	0.702 ± 0.068
GDIRLTGLSIVS	0.638 ± 0.031

Sequence	protein stability index
GDSGVWGPMGLW	0.732 ± 0.033
GDSSSCSSYVYL	0.651 ± 0.026
GDSVNSRALALS	0.732 ± 0.072
GDWIYRMDRILI	0.816 ± 0.035
GDWLVVRLVPSK	0.728 ± 0.013
GDWSYIVGIKYY	0.626 ± 0.0078
GEALVWGHGRLS	0.741 ± 0.041
GEGALGLRENLQ	0.665 ± 0.021
GEGEAVREMRGV	0.645 ± 0.025
GEGLGGGRGRRW	0.653 ± 0.026
GEGRGDKGHGWT	0.706 ± 0.19
GELCGHSRALHG	0.676 ± 0.071
GEPGQTSGREKT	0.641 ± 0.014
GEPGRLNSSLFA	0.678 ± 0.051
GERGTRAERAGA	0.682 ± 0.032
GERLVGGWHIWN	0.706 ± 0.015
GESPSTIRSVYS	0.609 ± 0.038
GESWGGVGDVRR	0.762 ± 0.028
GETVGCARLRLS	0.566 ± 0.023
GEVGAVVGESFV	0.622 ± 0.071
GEVVGRCGAWVC	0.611 ± 0.033
GEVVRGGEWGLD	0.686 ± 0.057
GFAAPSRPACLP	0.696 ± 0.017
GFACRSGSFWST	0.848 ± 0.15
GFFRGMLEGINA	0.726 ± 0.073
GFGEFVLSSGWG	0.743 ± 0.018

Sequence	protein stability index
GFGRGRRGLEEN	0.695 ± 0.024
GFKDRCKDEKSL	0.713 ± 0.11
GFLGCGSGCGWG	0.744 ± 0.057
GFMRGVREKSSR	0.701 ± 0.0073
GFPILSGLAVVR	0.6578 ± 0.0055
GFPPSPPPPSPL	0.741 ± 0.085
GFRGILFPVGRS	0.736 ± 0.03
GFSCLALFCRVD	0.587 ± 0.019
GFVCRRFRFGCI	0.634 ± 0.037
GFYEVLRNMFVI	0.589 ± 0.035
GGAAGGGRGGDG	0.62 ± 0.069
GGAGLGSRSSAL	0.743 ± 0.008
GGAGSVAGVWAV	0.673 ± 0.069
GGASGGAGEGVG	0.623 ± 0.063
GGCFGGVGVGSG	0.7122 ± 0.0045
GGCGGVGGACVV	0.738 ± 0.086
GGCGGVGGWGVA	0.712 ± 0.066
GGCKSLYFEWGR	0.734 ± 0.01
GGCRSVGWGREG	0.676 ± 0.029
GGCTVLRASIFA	0.597 ± 0.0063
GGCVGVLGGWGF	0.6827 ± 0.0032
GGEGAAWAGGVG	0.558 ± 0.028
GGEGMTCPGGGA	0.693 ± 0.039
GGFARGRDGWQL	0.712 ± 0.0013
GGFDDIYVPIFV	0.694 ± 0.012
GGFFPRISSLTV	0.707 ± 0.054

Sequence	protein stability index
GGFGEFTWAEAA	0.768 ± 0.0087
GGFGVLGLGVVG	0.6963 ± 0.0058
GGFPVGLVSGFC	0.641 ± 0.032
GGFVVVGGVVGV	0.72 ± 0.013
GGFWLGVGSRVG	0.711 ± 0.06
GGGAEGGVRGGG	0.664 ± 0.027
GGGAGGGSDRVV	0.736 ± 0.0096
GGGAGRGGVVVR	0.685 ± 0.023
GGGAGVTLSADG	0.682 ± 0.059
GGGARCGWGGRM	0.7 ± 0.011
GGGARREGAGRG	0.6752 ± 0.0064
GGGCLRGFWCVW	0.724 ± 0.046
GGGEKVMVVGHG	0.709 ± 0.013
GGGERTAGVGQT	0.733 ± 0.05
GGGGARRLAVGQ	0.678 ± 0.015
GGGGETGRERKD	0.655 ± 0.0061
GGGGGGGAGGSV	0.673 ± 0.0081
GGGGGGSAVEGG	0.674 ± 0.066
GGGGGGVECRVG	0.671 ± 0.086
GGGGGGWSGACL	0.716 ± 0.08
GGGGGVGVVRVG	0.66 ± 0.032
GGGGIREERVRE	0.766 ± 0.19
GGGGPVWREPGT	0.761 ± 0.01
GGGGQVWSCRLC	0.678 ± 0.077
GGGGSGGAGGGG	0.641 ± 0.0089
GGGGVVAGVCGG	0.667 ± 0.098

Sequence	protein stability index
GGGGVVGVVRVG	0.658 ± 0.044
GGGGVVVVQGAG	0.725 ± 0.058
GGGLGGGWGVWG	0.657 ± 0.025
GGGLGGREPGGS	0.742 ± 0.15
GGGLGWVWVKLG	0.735 ± 0.073
GGGNRMRENGRE	0.667 ± 0.026
GGGPAVEGLVGR	0.66 ± 0.045
GGGPPARRRRGA	0.652 ± 0.023
GGGRGGGFSGGV	0.655 ± 0.014
GGGRGRAGENTR	0.681 ± 0.049
GGGTVGCVVALA	0.64 ± 0.017
GGGVHRAVRPGN	0.653 ± 0.03
GGGVLTWLGENC	0.702 ± 0.0082
GGGWDAVGVGGP	0.7505 ± 0.0022
GGGWDVRGGCVG	0.724 ± 0.0089
GGIGVGGGHMLL	0.656 ± 0.024
GGLAWSMSGCVG	0.691 ± 0.076
GGLGGAGAGVVC	0.694 ± 0.11
GGLLLPCGAFGG	0.673 ± 0.06
GGLVVGCGGMWV	0.609 ± 0.0075
GGMEGRVACSAQ	0.74 ± 0.057
GGPGVKRPAMDP	0.688 ± 0.0071
GGPNKRTGVWGR	0.657 ± 0.0069
GGRGAGSDVGSL	0.677 ± 0.04
GGRGGAVEERGG	0.67 ± 0.0078
